Read-outs that look alike come from different tables or passages of the source.
Key:
recombinant MiOMTS [1] = experiment: In vitro enzymatic assay of recombinant MiOMTS with candidate substrates and SAM as methyl group donor; type: biochemical, Mangifera indica; conditions: 0.2 mM substrate, 0.01 mM SAM, 30° C. for 30 min; products identified by UHPLC-Orbitrap MS
Experimental: The complete ORF of MiOMTS cDNA was cloned in pGEX-4T vector and the protein was expressed as GST-tag fusion protein in E. coli BL21 (DE3) cells. The protein was purified using GST affinity chromatography and released from the tag using thrombin. […] The purified protein was assayed for its activity with furaneol, caffeic acid, catechol and protocatechuic aldehyde as substrates and S-adenosyl-L-metheonine (SAM) as methyl group donor. The methylation products of these substrates upon MiOMTS enzymatic reaction were identified and analysed on high resolution mass spectrometer. […] In contrast to furaneol and protocatechuic aldehyde, MiOMTS could not use caffeic acid and catechol as the methyl group acceptor.
(§1) The in vitro enzymatic assays were carried out in the lysis buffer containing appropriate amount of protein, 0.2 mM substrate and 0.01 mM S-adenosylmetheonine (SAM) in a final volume of 500 μl reaction. The reaction was incubated at 30° C. for 30 min. For the determination of optimum pH for the enzyme activity, the assays were performed in 50 mM citrate buffer (pH 4.0 and 5.0), 50 mM phosphate buffer (pH 6.0, 6.5, 7.0 and 7.5) and 50 mM Tris buffer (pH 8.0, 8.5 and 9.0) keeping other components in the assay same as above. Similarly, for optimum temperature the assays were performed at 15, 20, 25, 30, 35 and 40° C. Assay products were extracted twice with ethyl acetate; the organic layers were pooled, dried in a concentrator and constituted with methanol. An Accela™ ultra high performance liquid chromatography (UHPLC) system (ThermoFisher, Waltham, USA), coupled online via heated electrospray ionization source (HESI) with a Q-Exactive-Orbitrap mass spectrometer (ThermoFisher), was employed with 20 μL sample injection volume and the chromatograms were obtained by total ion monitoring in a positive ion mode. The products were separated and analysed on Hypercil GOLD C-18 reverse phase column (150 mm×3 mm i. d., particle size 5 μm, Thermo Scientific, Waltham, Mass., USA) with a linear gradient of 95% water acidified with 0.05% formic acid and 5% methanol to 80% methanol and 20% water with the flow rate of […]. The sample manager was maintained at 4° C. Identification of the substrates as well as products were done by comparing the retention time and molecular mass of authentic external standards [furaneol (CAS No. 3658-77-3), mesifuran (CAS No. 4077-47-8), protocatechuic aldehyde (CAS No. 139-85-5) and vanillin (CAS No. 121-33-5)] procured from Sigma Aldrich, USA.

MiOMTS transcripts = conditions: 5DAH ethylene treated vs 20DAH conventionally ripened
Experimental: Quantitative real-time PCR was performed using Fast Start Universal SYBR Green master mix (Roche Inc. Indianapolis, Ind., USA) and elongation factor 1α as an endogenous control employing the primers mentioned earlier (Pandit et al., 2010). Transcripts of MiOMTS were amplified using primers;
Quantification was done by ViiA™ 7 Real-Time PCR System (Applied Biosystems, CA, USA) having thermal cycle programme of initial denaturation at 95° C. for 10 min with subsequent 40 cycles of 95° C. for 3 sec and 60° C. for 30 sec followed by a dissociation curve analysis of transcripts. […] The quantification was done for three independent biological replicates separately, each of which was represented by at least three technical replicates. […] The uniformity of expression across the tissues was monitored using elongation factor 1α (EF1α) gene as an endogenous control.
To get better understanding of synthesis of mesifuran during late ripening stages of Alphonso mango and its regulation at transcriptional level, the transcripts of MiOMTS were profiled during the conventional ripening of Alphonso mango. […] To further assess this at transcript level, the transcripts of MiOMTS were analyzed in the fruits which were subjected to the postharvest ethylene treatment.

recombinant MiOMTS [2] = experiment: Optimum pH and temperature for the activity of recombinant MiOMTS using furaneol as a substrate; type: biochemical, Mangifera indica
Experimental: In order to evaluate the optimum biochemical conditions for the activity of recombinant MiOMTS, assays were performed at varied pH and temperatures using furaneol as a substrate. […] In case of temperature, optimum activity was detected at 25° C., with retention of 60% activity at 30° C.
as §1

For `O=C(O)/C=C/c1ccc(O)c(O)c1` [caffeic acid], the “use of substrate as methyl group acceptor (methylation) by MiOMTS” value (“use of substrate” for short) (recombinant MiOMTS [1]) was “could not use”.

In the case of `Oc1ccccc1O` [catechol], the “use of substrate” value (recombinant MiOMTS [1]) is reported as “could not use”.

`C=C` [ethylene] was tested, and the “MiOMTS transcript abundance, fold higher than conventionally ripened fruits” value (MiOMTS transcripts; pulp) was 19 fold and the “MiOMTS transcript abundance, fold higher than conventionally ripened fruits” value (MiOMTS transcripts; skin) was 82 fold.

With `CC1=C(O)C(=O)C(C)O1` (centres unmarked) [furaneol, 4-hydroxy-2,5-dimethyl-3(2H)-furanone] the “use of substrate” value (recombinant MiOMTS [1]) was “successfully used for methylation”.

With `O=Cc1ccc(O)c(O)c1` [protocatechuic aldehyde] the “use of substrate” value (recombinant MiOMTS [1]) was “successfully used for methylation”.

B1: MiOMTS: O-methyltransferase enzyme protein from Mangifera indica, having SEQ ID No.3, recombinantly expressed in E. coli (protein)
chain: MGSLEVKTLLEGQAEVWQYMFGFADSMVLKSAVELRLADIIHSYGGPMSLSQIASKIDSASPNIPYLGRIMRMLARKGVFGAHRPSEGGDTTYGLTHISTWLRHDSELSLAPMILMENNLWQLAPWHYLSQCVKQGGIAFKKAHGCEMWDFASQNPEFNKLFNDALACTTKIVMRAFLSQYKEGFNNVRSLVDVGGGTGGELAEILKTYPHMKGINFDLPHVVATAPEYDGVSNVGGNMFDAIPNADVIFMKWILHDWSDEACVKILKNCRKAIPEKTGRVVLVEIVLQENGDNMFGNMDVVFDLLMFAHTTGGKERTEPEWKKLLEEGGFPRYNIINIPALPSIIEAYPL
modifications: O-methyltransferase enzyme protein sequence; O-methyltransferase peptide or enzyme sequence
With B1 the “optimum pH for activity” value (recombinant MiOMTS [2]) was 7.0, the “optimum temperature for activity” value (recombinant MiOMTS [2]) was 25 °C and the “reduction in the activity” value (recombinant MiOMTS [2]; 20° C.) was “more than 50%”. The retention of activity (recombinant MiOMTS [2]; 30° C., relative to 25° C.) was 60%, the activity (recombinant MiOMTS [2]; 40° C.) was “complete inactivation” and the activity (recombinant MiOMTS [2]; pH 4) was “no activity was detected”. The activity (recombinant MiOMTS [2]; pH 5) was “no activity was detected”, the retention of activity (recombinant MiOMTS [2]; pH 6.0, relative to pH 7.0) was 70% and the retention of activity (recombinant MiOMTS [2]; pH 8.0, relative to pH 7.0) was 90%. The “reduction in the activity” value (recombinant MiOMTS [2]; pH 8.5) was “more than 50%” and the activity (recombinant MiOMTS [2]; pH 9) was “no activity was detected”.

— patent US10563181B2, “Molecular cloning and expression of cDNA encoding O-methyltransferase isolated from Mangifera indica” (COUNCIL OF SCIENTIFIC & INDUSTRIAL RESEARCH, priority 2015, dated 2020)
